According to publication PMC4354923, “FTO is necessary for the induction of leptin resistance by high-fat feeding” (Molecular Metabolism, 2015):

Molecular target: Myc-tagged full length FTO (UniProt Q9C0B1 1-505)
Assay: cell-based or functional assay

Sequence of Myc-tagged full length FTO (Q9C0B1 whole entry): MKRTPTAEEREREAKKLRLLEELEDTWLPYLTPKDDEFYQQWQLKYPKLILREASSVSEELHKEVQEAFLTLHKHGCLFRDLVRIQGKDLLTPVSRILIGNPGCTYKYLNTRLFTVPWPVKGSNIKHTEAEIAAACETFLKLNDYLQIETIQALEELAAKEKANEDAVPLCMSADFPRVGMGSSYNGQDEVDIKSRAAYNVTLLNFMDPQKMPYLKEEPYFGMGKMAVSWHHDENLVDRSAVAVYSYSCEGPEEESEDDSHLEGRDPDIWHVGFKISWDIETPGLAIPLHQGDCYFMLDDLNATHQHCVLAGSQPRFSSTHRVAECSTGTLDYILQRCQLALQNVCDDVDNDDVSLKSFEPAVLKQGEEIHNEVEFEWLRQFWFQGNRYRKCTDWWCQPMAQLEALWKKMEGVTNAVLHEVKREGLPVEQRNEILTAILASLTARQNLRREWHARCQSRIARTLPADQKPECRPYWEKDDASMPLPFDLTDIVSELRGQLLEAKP

B1: Thyroid receptor interacting protein 4 (TRIP4), in HEK293 cell extract (natural protein, human (endogenous in HEK293), UniProt Q15650 1-581, looked up)
chain: MAVAGAVSGEPLVHWCTQQLRKTFGLDVSEEIIQYVLSIESAEEIREYVTDLLQGNEGKKGQFIEELITKWQKNDQELISDPLQQCFKKDEILDGQKSGDHLKRGRKKGRNRQEVPAFTEPDTTAEVKTPFDLAKAQENSNSVKKKTKFVNLYTREGQDRLAVLLPGRHPCDCLGQKHKLINNCLICGRIVCEQEGSGPCLFCGTLVCTHEEQDILQRDSNKSQKLLKKLMSGVENSGKVDISTKDLLPHQELRIKSGLEKAIKHKDKLLEFDRTSIRRTQVIDDESDYFASDSNQWLSKLERETLQKREEELRELRHASRLSKKVTIDFAGRKILEEENSLAEYHSRLDETIQAIANGTLNQPLTKLDRSSEEPLGVLVNPNMYQSPPQWVDHTGAASQKKAFRSSGFGLEFNSFQHQLRIQDQEFQEGFDGGWCLSVHQPWASLLVRGIKRVEGRSWYTPHRGRLWIAATAKKPSPQEVSELQATYRLLRGKDVEFPNDYPSGCLLGCVDLIDCLSQKQFKEQFPDISQESDSPFVFICKNPQEMVVKFPIKGNPKIWKLDSKIHQGAKKGLMKQNKAV
NFκB-responsive firefly luciferase reporter (normalised to renilla) in Fto null MEFs co-transfected with a TRIP4 expression construct and Myc-tagged full length FTO: ≤ 5 fold
